This note sets out measurements from US20230127248A1 (AILERON THERAPEUTICS, published 2023).

Bridge positions count the residues as written; N and C are the ends. Square brackets hold non-standard residues; d marks the D form. Phe(4-F) = N[C@@H](Cc1ccc(F)cc1)C(=O)O; R8 = C=CCCCCCC[C@@](C)(N)C(=O)O; hLeu = CC(C)CC[C@H](N)C(=O)O; S5 = C=CCCC[C@](C)(N)C(=O)O; Nle = CCCC[C@H](N)C(=O)O

B1: SP-815 (peptidomimetic macrocycle derived from the MCL-1/BCL-XL/BCL-2-binding helix of BIM) (peptide)
peptide: Ac-IWIAQALR[R8]IGDAFN[S5]YYA-NH2
modifications: staple 9-16
SMILES: CC[C@H](C)[C@H](NC(C)=O)C(=O)N[C@@H](Cc1c[nH]c2ccccc12)C(=O)N[C@H](C(=O)N[C@@H](C)C(=O)N[C@@H](CCC(N)=O)C(=O)N[C@@H](C)C(=O)N[C@@H](CC(C)C)C(=O)N[C@@H](CCCNC(=N)N)C(=O)N[C@]1(C)CCCCCCC=CCCC[C@@](C)(C(=O)N[C@@H](Cc2ccc(O)cc2)C(=O)N[C@@H](Cc2ccc(O)cc2)C(=O)N[C@@H](C)C(N)=O)NC(=O)[C@H](CC(N)=O)NC(=O)[C@H](Cc2ccccc2)NC(=O)[C@H](C)NC(=O)[C@H](CC(=O)O)NC(=O)CNC(=O)[C@H]([C@@H](C)CC)NC1=O)[C@@H](C)CC
notes: Stapled BIM BH3 peptide, 19 residues
B2: SP-809 (peptidomimetic macrocycle derived from the MCL-1/BCL-XL/BCL-2-binding helix of BIM) (peptide)
peptide: Ac-IWIAQALR[R8]IGDEFN[S5]YYARR-NH2
modifications: staple 9-16
SMILES: CC[C@H](C)[C@H](NC(C)=O)C(=O)N[C@@H](Cc1c[nH]c2ccccc12)C(=O)N[C@H](C(=O)N[C@@H](C)C(=O)N[C@@H](CCC(N)=O)C(=O)N[C@@H](C)C(=O)N[C@@H](CC(C)C)C(=O)N[C@@H](CCCNC(=N)N)C(=O)N[C@]1(C)CCCCCCC=CCCC[C@@](C)(C(=O)N[C@@H](Cc2ccc(O)cc2)C(=O)N[C@@H](Cc2ccc(O)cc2)C(=O)N[C@@H](C)C(=O)N[C@@H](CCCNC(=N)N)C(=O)N[C@@H](CCCNC(=N)N)C(N)=O)NC(=O)[C@H](CC(N)=O)NC(=O)[C@H](Cc2ccccc2)NC(=O)[C@H](CCC(=O)O)NC(=O)[C@H](CC(=O)O)NC(=O)CNC(=O)[C@H]([C@@H](C)CC)NC1=O)[C@@H](C)CC
notes: Stapled BIM BH3 peptide, 21 residues
B3: SP-962 (peptidomimetic macrocycle derived from the MCL-1/BCL-XL/BCL-2-binding helix of BIM) (peptide)
peptide: Ac-IWIAQALR[R8][hLeu]GDAFN[S5]Y[Phe(4-F)]A-NH2
modifications: staple 9-16
SMILES: CC[C@H](C)[C@H](NC(C)=O)C(=O)N[C@@H](Cc1c[nH]c2ccccc12)C(=O)N[C@H](C(=O)N[C@@H](C)C(=O)N[C@@H](CCC(N)=O)C(=O)N[C@@H](C)C(=O)N[C@@H](CC(C)C)C(=O)N[C@@H](CCCNC(=N)N)C(=O)N[C@]1(C)CCCCCCC=CCCC[C@@](C)(C(=O)N[C@@H](Cc2ccc(O)cc2)C(=O)N[C@@H](Cc2ccc(F)cc2)C(=O)N[C@@H](C)C(N)=O)NC(=O)[C@H](CC(N)=O)NC(=O)[C@H](Cc2ccccc2)NC(=O)[C@H](C)NC(=O)[C@H](CC(=O)O)NC(=O)CNC(=O)[C@H](CCC(C)C)NC1=O)[C@@H](C)CC
notes: as for B1
B4: SP68: Ac-LTF$r8AYWAQL$AANleA-NH2 (peptide)
peptide: Ac-LTF[R8]AYWAQL[S5]AA[Nle]A-NH2
modifications: staple 4-11
notes: i, i+7 stapled p53-derived macrocycle
B5: SP590 (Table 1b): Ac-LTF$rAYWAQL$A-NH2 (peptide)
peptide: Ac-LTF[R8]AYWAQL[S5]A-NH2
modifications: staple 4-11
SMILES: CC(=O)N[C@@H](CC(C)C)C(=O)N[C@H](C(=O)N[C@@H](Cc1ccccc1)C(=O)N[C@]1(C)CCCCCCC=CCCC[C@@](C)(C(=O)N[C@@H](C)C(N)=O)NC(=O)[C@H](CC(C)C)NC(=O)[C@H](CCC(N)=O)NC(=O)[C@H](C)NC(=O)[C@H](Cc2c[nH]c3ccccc23)NC(=O)[C@H](Cc2ccc(O)cc2)NC(=O)[C@H](C)NC1=O)[C@@H](C)O
B6: SP317: Ac-LTF$r8AYWAQL$AAAAAAa-NH2 (iso1) (peptide)
peptide: Ac-LTF[R8]AYWAQL[S5]AAAAAA[dA]-NH2
modifications: staple 4-11; also: single isomer iso1
B7: SP-810 (peptidomimetic macrocycle derived from the MCL-1/BCL-XL/BCL-2-binding helix of BIM) (peptide)
peptide: Ac-IWIAQELR[R8]IGDEFN[S5]YYARR-NH2
modifications: staple 9-16
SMILES: CC[C@H](C)[C@H](NC(C)=O)C(=O)N[C@@H](Cc1c[nH]c2ccccc12)C(=O)N[C@H](C(=O)N[C@@H](C)C(=O)N[C@@H](CCC(N)=O)C(=O)N[C@@H](CCC(=O)O)C(=O)N[C@@H](CC(C)C)C(=O)N[C@@H](CCCNC(=N)N)C(=O)N[C@]1(C)CCCCCCC=CCCC[C@@](C)(C(=O)N[C@@H](Cc2ccc(O)cc2)C(=O)N[C@@H](Cc2ccc(O)cc2)C(=O)N[C@@H](C)C(=O)N[C@@H](CCCNC(=N)N)C(=O)N[C@@H](CCCNC(=N)N)C(N)=O)NC(=O)[C@H](CC(N)=O)NC(=O)[C@H](Cc2ccccc2)NC(=O)[C@H](CCC(=O)O)NC(=O)[C@H](CC(=O)O)NC(=O)CNC(=O)[C@H]([C@@H](C)CC)NC1=O)[C@@H](C)CC
notes: as for B2

T3 sequence (Q07817 1-209): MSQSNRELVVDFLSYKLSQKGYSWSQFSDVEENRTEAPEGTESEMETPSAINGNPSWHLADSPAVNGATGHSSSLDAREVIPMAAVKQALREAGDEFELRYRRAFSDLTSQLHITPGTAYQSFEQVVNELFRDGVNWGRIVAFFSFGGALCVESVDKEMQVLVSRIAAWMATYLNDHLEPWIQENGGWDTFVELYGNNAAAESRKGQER
T2 sequence (Q00987 1-138 limits assumed): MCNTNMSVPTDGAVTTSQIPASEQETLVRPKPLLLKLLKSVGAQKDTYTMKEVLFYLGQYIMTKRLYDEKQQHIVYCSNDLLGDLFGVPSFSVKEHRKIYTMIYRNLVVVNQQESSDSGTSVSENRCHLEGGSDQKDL

For the first test, the target named is T1, MCL-1 (Myeloid cell leukemia 1) (UniProt Q07820 172-327, limits assumed).
T1 construct: Construct used in the IC50 assay is not described
T1 sequence (Q07820 172-327 limits assumed): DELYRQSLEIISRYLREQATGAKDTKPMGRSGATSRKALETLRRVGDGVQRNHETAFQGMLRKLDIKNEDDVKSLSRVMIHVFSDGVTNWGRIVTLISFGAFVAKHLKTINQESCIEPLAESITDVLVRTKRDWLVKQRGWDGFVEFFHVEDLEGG
The test can be described thus: IC50 against MCL-1, Table 4b; assay format not stated.
As for B1, the half-maximal inhibitory concentration (IC50) – broadly, the concentration needed to halve the response being measured – was 8.4 nM.

The molecule B2 showed an IC50 of 10.6 nM.

Molecule B3 registered an IC50 of 27 nM.

Another test addresses T2, MDM2 (human, UniProt Q00987 1-138, limits assumed).
T2 construct: also called HDM2; human double minute 2
In words: IC50 against MDM2; assay format and competitor not described with the table.
The molecule B4 gave an IC50 of 29 nM.

As for B5, the IC50 is 141 nM.

Take B6: the 50% inhibitory concentration (IC50) is 10 nM.

A further test has as its target T3, BCL-XL (UniProt Q07817 1-209).
T3 construct: Construct used in the IC50 assay is not described; also called BCL-X1
The test can be described thus: IC50 against BCL-XL, Table 4b; assay format not stated.
As for B1, the 50% inhibitory concentration (IC50) came to 22.4 nM.

In turn, B7 returned an IC50 of 9.2 nM.

Molecule B2 displayed an IC50 of 3.9 nM.

B3 came in with an IC50 of 13 nM.
